The source of these data is patent publication US20120058906A1 (published 2012).

Assay [1] deals with T1, Recombinant Human DLL4 (R&D Systems, Cat#1506-D4/CF) (human, UniProt Q9NR61 27-529).
T1 construct: Bought protein; also called rHuman DLL4; delta-like protein 4
The assay is described as follows: Surface Plasmon Resonance, recombinant human DLL4.

For assay [2], the target named is T2, rHuman IGF-1 sR, (IGF-1 sR), CF (R&D Systems Cat#391-GR) (human, UniProt P08069 31-932).
T2 construct: also called insulin-like growth factor-1 soluble receptor; IGF-R1
The assay is described as follows: MSD ECL multi-spot plate; Fab 1570 nM; blank spot 866.

The target in assay [3] is T3, rHuman P-Cadherin/Fc Chimera, CF (R&D Systems Cat#861-PC) (human, UniProt P22223 108-654).
T3 construct: Fc part of the bought chimera not given
The description is as above.

Assay [4] has as its target T4, rHuman Erythropoietin R/Fc Chimera, CF (R&D Systems Cat#963-ER) (human, UniProt P19235 25-250).
T4 construct: also called EPO R/Fc; Epo R; Fc part of the bought chimera not given
T4 sequence: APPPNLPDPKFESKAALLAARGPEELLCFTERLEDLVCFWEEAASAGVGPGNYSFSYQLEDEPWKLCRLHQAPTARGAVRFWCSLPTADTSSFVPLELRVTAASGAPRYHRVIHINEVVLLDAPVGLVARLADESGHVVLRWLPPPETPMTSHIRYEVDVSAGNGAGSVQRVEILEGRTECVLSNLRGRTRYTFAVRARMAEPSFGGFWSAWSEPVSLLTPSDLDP
The description is as above.

For assay [5], the target named is T5, rHuman ErbB2/Fc Chimera, CF (R&D Systems Cat#1129-ER) (human, UniProt P04626 23-652).
T5 construct: also called HER2/neu; human epidermal growth factor 2 receptor; Fc part of the bought chimera not given
The assay is described as above.

Assay [6] concerns the target T6, rHuman HGF R/c-MET/Fc Chimera, CF (R&D Systems Cat#358-MT/CF) (human, UniProt P08581 25-932).
T6 construct: also called HGF R/Fc; hepatocyte growth factor receptor; Fc part of the bought chimera not given
Described as above.

The target in assay [7] is T7, rHuman CD44/Fc Chimera, CF (R&D Systems Cat#3660-CD) (human, UniProt P16070 21-220).
T7 construct: Fc part of the bought chimera not given
The assay is described as above.

The target of assay [8] is T2, rHuman IGF-1 sR, (IGF-1 sR), CF (R&D …). Nature of the assay: MSD ECL multi-spot plate; Fab 24.5 nM; blank spot 149.
The target in assay [9] is T3, rHuman P-Cadherin/Fc Chimera, CF (R&D …). The assay is described as above.
The target of assay [10] is T4, rHuman Erythropoietin R/Fc Chimera, CF …. The assay is described as above.
Assay [11] concerns the target T5, rHuman ErbB2/Fc Chimera, CF (R&D …). Described as above.
In assay [12] the target is T6, rHuman HGF R/c-MET/Fc Chimera, CF (R&D …). The assay is described as above.
In assay [13] the target is T7, rHuman CD44/Fc Chimera, CF (R&D Systems …). The description is as above.
Assay [14] deals with T2, rHuman IGF-1 sR, (IGF-1 sR), CF (R&D …). The assay is described as follows: MSD ECL multi-spot plate; Fab 98.1 nM; blank spot 210.
The target of assay [15] is T3, rHuman P-Cadherin/Fc Chimera, CF (R&D …). The description is as above.
Assay [16] deals with T4, rHuman Erythropoietin R/Fc Chimera, CF …. Described as above.
Assay [17] concerns the target T5, rHuman ErbB2/Fc Chimera, CF (R&D …). The description is as above.
The target of assay [18] is T6, rHuman HGF R/c-MET/Fc Chimera, CF (R&D …). The assay is described as above.
Assay [19] addresses T7, rHuman CD44/Fc Chimera, CF (R&D Systems …). Described as above.
In assay [20] the target is T2, rHuman IGF-1 sR, (IGF-1 sR), CF (R&D …). The assay is described as follows: MSD ECL multi-spot plate; Fab 392.5 nM; blank spot 338.
The target in assay [21] is T3, rHuman P-Cadherin/Fc Chimera, CF (R&D …). Described as above.
Assay [22] concerns the target T4, rHuman Erythropoietin R/Fc Chimera, CF …. The assay is described as above.
In assay [23] the target is T5, rHuman ErbB2/Fc Chimera, CF (R&D …). The assay is described as above.
Assay [24] deals with T6, rHuman HGF R/c-MET/Fc Chimera, CF (R&D …). Described as above.
In assay [25] the target is T7, rHuman CD44/Fc Chimera, CF (R&D Systems …). Described as above.
Assay [26] deals with T8, rHuman Notch-1/Fc Chimera, CF (R&D Systems Cat#3647-TK) (human, UniProt P46531 19-526).
T8 construct: Bought Fc chimera; Fc part of the bought chimera not given
Nature of the assay: MSD ECL multi-spot, Fab 0.21 uM, blank 529; row label 3 may be swapped with 4.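 Also: blank spot per well as comparator with Hit at signal to blank ratio of 4 or more.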

In assay [27] the target is T9, rHuman CD44/Fc Chimera, CF (R&D Systems Cat#3660-CD) (human, UniProt P16070 21-220).
T9 construct: Bought Fc chimera; Fc part of the bought chimera not given
The assay is described as above.

The target in assay [28] is T10, rHuman IGF-1 sR (insulin-like growth factor-1 soluble receptor), CF (R&D Systems Cat#391-GR) (human, UniProt P08069 31-932).
T10 construct: Bought soluble receptor; also called IGF-R1
The assay is described as above.

Assay [29] deals with T11, rHuman P-Cadherin/Fc Chimera, CF (R&D Systems Cat#861-PC) (human, UniProt P22223 108-654).
T11 construct: Bought Fc chimera; Fc part of the bought chimera not given
The assay is described as above.

For assay [30], the target named is T12, rHuman Erythropoietin R/Fc Chimera, CF (R&D Systems Cat#963-ER) (human, UniProt P19235 25-250).
T12 construct: Bought Fc chimera; also called EPO R/Fc; EPOR; Fc part of the bought chimera not given
T12 sequence: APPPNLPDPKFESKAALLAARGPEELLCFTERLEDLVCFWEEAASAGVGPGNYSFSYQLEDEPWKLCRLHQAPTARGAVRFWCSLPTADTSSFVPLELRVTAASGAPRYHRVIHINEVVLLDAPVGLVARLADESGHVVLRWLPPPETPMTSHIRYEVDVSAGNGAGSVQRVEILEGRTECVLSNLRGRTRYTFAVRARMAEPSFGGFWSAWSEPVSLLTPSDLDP
The description is as above.

Assay [31] deals with T13, Recombinant Human DLL4 (R&D Systems Cat#1506-D4/CF) (human, UniProt Q9NR61 27-524).
T13 construct: Bought recombinant protein; also called rHuman DLL4; delta-like protein 4
The description is as above.

Assay [32] addresses T14, rHuman ErbB2/Fc Chimera, CF (R&D Systems Cat#1129-ER) (human, UniProt P04626 23-652).
T14 construct: Bought Fc chimera; also called HER2/neu; Fc part of the bought chimera not given
Described as above.

The target of assay [33] is T15, rHuman EGF R/Fc Chimera, CF (R&D Systems Cat#344-ER) (human, UniProt P00533 25-645).
T15 construct: Bought Fc chimera; Fc part of the bought chimera not given
The assay is described as above.

The target in assay [34] is T16, rHuman HGF R/c-MET/Fc Chimera, CF (R&D Systems Cat#358-MT/CF) (human, UniProt P08581 25-932).
T16 construct: Bought Fc chimera; also called HGF R/Fc; Fc part of the bought chimera not given
The description is as above.

B1: Fab VH1-46_IGHD6-6*01_IGHJ1*01_S102A_S103P_S104F_H111F & L6_IGKJ1*01 (Fab, V domains shown)
VH: QVQLVQSGAEVKKPGASVKVSCKASGYTFTSYYMHWVRQAPGQGLEWMGIINPSGGSTSYAQKFQGRVTMTRDTSTSTVYMELSSLRSEDTAVYYCAREEYAPFSAEYFQFWGQGTLVTVSS
VL: not shown
notes: Modified Fab
The Kd is the constant that tells how readily two partners part at equilibrium. B1: the Kd in assay [1] turned out to be 70.6 nM.

B2: Fab VH1-46_IGHD3-10*01_IGHJ4*01 & O1_IGKJ1*01 (Fab, V domains shown)
VH: QVQLVQSGAEVKKPGASVKVSCKASGYTFTSYYMHWVRQAPGQGLEWMGIINPSGGSTSYAQKFQGRVTMTRDTSTSTVYMELSSLRSEDTAVYYCAREYYYGSGSYYNDYFDYWGQGTLVTVSS
VL: DIVMTQTPLSLPVTPGEPASISCRSSQSLLDSDDGNTYLDWYLQKPGQSPQLLIYTLSYRASGVPDRFSGSGSGTDFTLKISRVEAEDVGVYYCMQRIEFPSWTFGQGTKVEIK
notes: It was expressed in E. coli as a Fab; The heavy chain carries CH1 from Plasmid A with Flag and His tags; The light chain carries the kappa constant region from Plasmid C
Take B2: the ECL signal in [2] was 1430 ECL signal; in assay [3] it was 1790 ECL signal; in [4], 6120 ECL signal; in [5], 1260 ECL signal; in [6], 1640 ECL signal; in assay [7], 1380 ECL signal. The ECL signal was found to be 239 ECL signal in assay [8]; 257 ECL signal in assay [9]; 4530 ECL signal in assay [10]; 241 ECL signal in assay [11]; 211 ECL signal in assay [12]; 267 ECL signal in assay [13]. Also, the ECL signal stood at 309 ECL signal in assay [14]; 347 ECL signal in [15]; 5630 ECL signal in assay [16]; 247 ECL signal in [17]; 335 ECL signal in [18]; 265 ECL signal in [19]. In addition, the ECL signal in assay [20] is 466 ECL signal; in [21], 459 ECL signal; in assay [22] it was 5860 ECL signal; in assay [23] it was 539 ECL signal; in [24], 581 ECL signal; in assay [25], 498 ECL signal.

B3: Fab VH6-1_IGHD3-3*01_IGHJ4*01 & V4-3_IGLJ4*01 (Fab, V domains shown)
VH: QVQLQQSGPGLVKPSQTLSLTCAISGDSVSSNSAAWNWIRQSPSRGLEWLGRTYYRSKWYNDYAVSVKSRITINPDTSKNQFSLQLNSVTPEDTAVYYCAREYYDFWSGYYTDYFDYWGQGTLVTVSS
VL: QPVLTQPTSLSASPGASARLTCTLRSGINLGSYRIFWYQQKPESPPRYLLSYYSDSSKHQGSGVPSRFSGSKDASSNAGILVISGLQSEDEADYYCMIWHSSASFVFGGGTQLIIL
notes: Expressed in E. coli as Fab: heavy chain with CH1 plus Flag and His tags from Plasmid A, lambda light chain constant region from Plasmid E; also called Fab No. 3
As to B3, the ECL signal was determined as 949 in assay [26]; 837 in assay [27]; 763 in assay [28]; 890 in assay [29]; 1120 in [30]; 1070 in assay [31]. Also, the ECL signal in [32] was 9230; in assay [33], 815; in [34], 744.
